This passage reports EC50 (read off the curve) results from patent US20210214454A1.

Experiment [1] has as its target human CD40 protein expressed on cells (human) (UniProt P25942). Nature of the experiment: flow cytometry on CHO-S cells transiently expressing human CD40; AF647 anti-human IgG (H+L) secondary; GeoMean RL1-H. For orientation: Flow cytometry measures light scatter and fluorescence of single cells or particles in a stream.
The target of experiment [2] is cynomolgus CD40 protein expressed on CHO-S cells (cynomolgus) (UniProt G7PG38). Nature of the experiment: flow cytometry on CHO-S cells transiently expressing cynomolgus CD40; AF647 anti-human IgG (H+L) secondary; GeoMean RL1-H.
Chain of cynomolgus CD40 protein expressed on CHO-S cells (cynomolgus) (G7PG38 entry or part of it): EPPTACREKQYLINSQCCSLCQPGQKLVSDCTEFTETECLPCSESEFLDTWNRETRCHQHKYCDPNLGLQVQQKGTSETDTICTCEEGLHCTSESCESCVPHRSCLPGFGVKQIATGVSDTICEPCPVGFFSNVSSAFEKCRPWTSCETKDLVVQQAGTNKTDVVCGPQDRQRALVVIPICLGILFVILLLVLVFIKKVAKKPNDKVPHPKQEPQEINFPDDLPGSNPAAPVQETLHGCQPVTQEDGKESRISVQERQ

Chain of human CD40 protein expressed on cells (human) (P25942 21-277 limits assumed): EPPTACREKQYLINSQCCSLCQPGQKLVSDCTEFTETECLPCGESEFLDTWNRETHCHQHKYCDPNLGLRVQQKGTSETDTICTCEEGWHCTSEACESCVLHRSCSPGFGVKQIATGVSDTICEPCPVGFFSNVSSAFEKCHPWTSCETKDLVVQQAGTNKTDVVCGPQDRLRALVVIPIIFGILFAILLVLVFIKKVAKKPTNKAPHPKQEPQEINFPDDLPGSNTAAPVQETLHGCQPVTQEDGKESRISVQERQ

B1: ADC-1013 analogue (antibody, INN chains, looked up, IgG1, V domains shown)
VH: EVQLLESGGGLVQPGGSLRLSCAASGFTFSTYGMHWVRQAPGKGLEWLSYISGGSSYIFYADSVRGRFTISRDNSENALYLQMNSLRAEDTAVYYCARILRGGSGMDLWGQGTLVTVSS
VL: QSVLTQPPSASGTPGQRVTISCTGSSSNIGAGYNVYWYQQLPGTAPKLLIYGNINRPSGVPDRFSGSKSGTSASLAISGLRSEDEADYYCAAWDKSISGLVFGGGTKLTVL
As usually defined, the EC50 (read off the curve) is the concentration giving half of the maximal effect. Take B1: the concentration giving a half-maximal response (EC50 (read off the curve)) in experiment [1] and in experiment [2] was 0.01 µg/mL each time.
